Consider one substance from publication PMC7617879.

The target in this assay is catalytic domain of MMP-14 (MMP-14CAT) (human). The assay is described as follows: enzyme inhibition assay.

The Ki is the equilibrium dissociation constant of an inhibitor or competing ligand from its target. Regarding “wild-type N-terminal domain of TIMP2 (N-TIMP2) (domain or fragment)”, the Ki is 0.76 nM.
